Reference: patent US20160176943A1 (INSERM INSITITUT NATIONAL DE LA SANTE ET DE LA RECHERCHE …, published 2016)

T1: recombinant NKG2D-Fc chimeric protein (UniProt P26718 78-216)
T1 construct: Bought from R&D Systems; also called NKG2D-Fc protein; recombinant NKG2D-Fc chimera protein; not shown: Fc part
T1 sequence (looked up): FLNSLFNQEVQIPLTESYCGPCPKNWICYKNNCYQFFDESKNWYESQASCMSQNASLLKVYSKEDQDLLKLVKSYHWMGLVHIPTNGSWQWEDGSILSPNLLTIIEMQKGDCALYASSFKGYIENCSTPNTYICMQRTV


What was measured:
[1] = molecular target: NKG2D receptor on NK cells (UniProt P26718); test: cell-based or functional assay
[2] = molecular target: T1, recombinant NKG2D-Fc chimeric protein; test: NKG2D-Fc staining of COS transfectants, facs and cellular immunofluorescence
Description: FIG. 10. A). MICA-B2 is a novel ligand for the NKG2D receptor. COS cells were transfected with cDNA for WT MICA or MICA isoforms. Forty-eight hours post-transfection cells welle incubated with recombinant NKG2D-Fc chimeric protein. […] Staining was analyzed by fluorescent microscopy and positive signal was converted into black and white picture, positive cells intercating with NKG2D-Fc are shown in black. COS cells transfected with the WT cDNA for MICA are used as positive controls. B) Visualisation of NKG2D binding on MICA-B2 isoform expression analyzed by confocal microscopy on COS-7 transfected cells using a recombinant NKG2D-Fc protein. Transfected cells were detected using an anti-Flag (M2) monoclonal antibody. NKG2D-Fc binding and Flag intracellular detection were achieved 48 h post-transfection before and after cell fixation and permeabilization, respectively. COS cells transfected with the WT cDNA for MICA are used as positive controls. Immunofluorescence staining was obtained using an FITC-labeled secondary antibody and shown in black and white, specific staining appears in white.
To functionally assess a role for the MICA isoforms in immune regulation, the possible interaction of MICA isoforms with NKG2D receptor, the natural receptor of full length MICA, was investigated by facs and by cellular immunofluorescence. […]

| Molecule | NKG2D expression on NK (NKL) cells after overnight incubation with soluble protein, flow cytometry [1] [%] | binding result [2] |
| --- | --- | --- |
| soluble recombinant isoform MICA-B2 (from UniProt Q29983 24-307) (ligand) | 47.5 |  |
| MICA-B1 isoform expressed in transfected cells (ligand, Alpha1 domain, novel polypeptide region, TM and CYT; also called isoform B1; not shown: C-terminal FLAG tag (three copies of FLAG in 3' from the pCMV-3Tag vector)) EPHSLRYNLTVLSGDGSVQSGFLAEVHLDGQPFLRCDRQKCRAKPQGQWAEDVLGNKTWDRETRDLTGNGKDLRMTLAHIKDQKEVLQSSDLGHERQEFLEGRCHEDQDTLSRYACRLPAGTTAISKIRRSPEENSAPHGECHPQRGLEGQHYRDMQGFWLLSLEYHTELASGWGKVLVLQSHWQTFHVSAVAAAAAAAAAIFVIIIFYVCCCKKKTSAAEGPELVSLQVLDQHPVGTSDHRDATQLGFQPLMSDLGSTGSTEGA |  | no binding |
| MICA-D isoform expressed on transfected cells (ligand, also called isoform D; not shown: C-terminal FLAG tag (three copies of FLAG in 3' from the pCMV-3Tag vector)) EPHSLRYNLTVLSGDGSVQSGFLAEVHLDGQPFLRCDRQKCRAKPQGQWAEDVLGNKTWDRETRDLTGNGKDLRMTLAHIKDQKEGKVLVLQSHWQTFHVSAVAAAAAAAAAIFVIIIFYVCCCKKKTSAAEGPELVSLQVLDQHPVGTSDHRDATQLGFQPLMSDLGSTGSTEGA |  | no binding |
